Measured values reported in publication PMC8849478.

Columns and labels:
[1] = target: human haptoglobin, mixture of phenotypes Hp2-1 and Hp2-2 (human) (UniProt P00738); experiment: stopped-flow fluorescence spectrometry; Hp (0.25 μM, Hb tetramer binding basis) rapidly mixed with excess Hb/metHb at various concentrations; excitation 285 nm, emission 310 nm; monoexponential fit gives pseudo first order constants, linear regression against Hb/metHb concentration gives the bimolecular rate constant
human hemoglobin (human) = human hemoglobin (human) (UniProt P69905); experiment: SEC; tetramer to dimers; SEC-HPLC of samples at 1.25, 2.5, 5, 10 and 20 μM (heme basis) after incubation in 0.1 M PBS pH 7.4 at 4°C for one week; fraction of tetramers by deconvolution, Kd from the intercept of the linearised plot (Eq 3)
[2] = target: human methemoglobin (human) (UniProt P69905); experiment: as above

Sequence of bovine hemoglobin (P01966 whole entry): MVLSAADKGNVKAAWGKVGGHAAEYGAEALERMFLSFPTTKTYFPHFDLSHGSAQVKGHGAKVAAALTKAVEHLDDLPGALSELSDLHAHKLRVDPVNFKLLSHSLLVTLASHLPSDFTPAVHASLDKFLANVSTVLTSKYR
Sequence of bovine hemoglobin (P02070 whole entry): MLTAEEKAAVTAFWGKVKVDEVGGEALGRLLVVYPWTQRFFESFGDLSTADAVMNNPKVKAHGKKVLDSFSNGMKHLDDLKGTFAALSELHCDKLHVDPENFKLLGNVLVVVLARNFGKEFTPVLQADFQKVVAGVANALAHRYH
Sequence of bovine methemoglobin (P01966 whole entry): as the sequence (P01966 whole entry) above
Sequence of bovine methemoglobin (P02070 whole entry): as the sequence (P02070 whole entry) above
Sequence of human hemoglobin, P69905 1-142; P68871 1-147 (complex; other documents disagree on this pair) (P69905 whole entry): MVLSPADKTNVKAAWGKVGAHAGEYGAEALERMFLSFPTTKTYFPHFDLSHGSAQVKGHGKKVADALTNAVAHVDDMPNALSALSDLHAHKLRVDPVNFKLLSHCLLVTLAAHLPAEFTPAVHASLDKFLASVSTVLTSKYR
Sequence of human hemoglobin, P69905 1-142; P68871 1-147 (complex; other documents disagree on this pair) (P68871 whole entry): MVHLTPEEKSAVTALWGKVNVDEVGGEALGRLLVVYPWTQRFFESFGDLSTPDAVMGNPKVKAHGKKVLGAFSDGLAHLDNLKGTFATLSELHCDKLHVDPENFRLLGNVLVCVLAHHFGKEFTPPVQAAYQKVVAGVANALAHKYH
Sequence of human methemoglobin, P69905 1-142; P68871 1-147 (complex; other documents disagree on this pair) (P69905 whole entry): as the sequence (P69905 whole entry) above
Sequence of human methemoglobin, P69905 1-142; P68871 1-147 (complex; other documents disagree on this pair) (P68871 whole entry): as the sequence (P68871 whole entry) above

kon [1] [M⁻¹ s⁻¹]	Substance	other results
147000	bovine hemoglobin (from UniProt P01966 1-142; P02070 1-145) (complex)	
140000	bovine methemoglobin (from UniProt P01966 1-142; P02070 1-145) (complex)	
	human hemoglobin, P69905 1-142; P68871 1-147 (complex; other documents disagree on this pair)	Kd (human hemoglobin (human)): 230 nM
	human methemoglobin, P69905 1-142; P68871 1-147 (complex; other documents disagree on this pair)	Kd [2]: 450 nM
